Experimental data as given in patent publication US20090010911A1, “METHODS AND COMPOSITIONS FOR AFFECTING CYCLOPHILIN A REGULATION OF KINASES IN MODULATING CELLULAR ACTIVITIES” (IOWA STATE UNIVERSITY RESEARCH FOUNDATION, INC., priority 2007, published 2009).

How the values were obtained:
full length Itk = target: T1, full length Itk (Mus musculus, UniProt Q03526); experiment: In vitro Itk kinase assay using Peptide B as the substrate (initial velocities); format: biochemical; details: full length Itk
T1 construct: made in house; host or cells: Sf9 insect cells (baculovirus), co-infected 1:1 with Lck baculovirus
T1 sequence (Q03526 1-625): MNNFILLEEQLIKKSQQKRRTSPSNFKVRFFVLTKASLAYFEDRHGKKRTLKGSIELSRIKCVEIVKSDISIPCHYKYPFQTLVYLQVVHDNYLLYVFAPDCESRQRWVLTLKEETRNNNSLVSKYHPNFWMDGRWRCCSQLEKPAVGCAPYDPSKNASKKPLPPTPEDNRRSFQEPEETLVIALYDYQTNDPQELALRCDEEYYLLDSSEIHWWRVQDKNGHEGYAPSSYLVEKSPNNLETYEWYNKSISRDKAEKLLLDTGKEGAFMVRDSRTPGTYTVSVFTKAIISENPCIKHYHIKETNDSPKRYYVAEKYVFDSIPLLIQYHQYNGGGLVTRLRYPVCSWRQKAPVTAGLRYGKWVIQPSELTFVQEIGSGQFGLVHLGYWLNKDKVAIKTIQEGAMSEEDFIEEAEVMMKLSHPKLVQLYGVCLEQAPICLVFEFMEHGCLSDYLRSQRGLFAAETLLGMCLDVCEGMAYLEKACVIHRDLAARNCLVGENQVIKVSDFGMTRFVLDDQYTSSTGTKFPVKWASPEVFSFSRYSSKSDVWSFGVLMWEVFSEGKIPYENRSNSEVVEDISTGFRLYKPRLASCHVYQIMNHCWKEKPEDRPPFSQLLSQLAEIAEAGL
Procedure: Substrate used in each experiment is indicated above each set of blots. 4(a) (left) Itk 32 substrate was incubated with Itk full-length enzyme as before (lane 1), or with Itk 32 domain:free Itk SH2 domain in ratios of 1:10, 1:25 or 1:50 (lanes 2-4, respectively) or equivalent ratios of PI3K N-terminal SH2 domain (lanes 5-7) and subjected to an in vitro kinase assay. […] Coomassie stain and an anti-FLAG blot (bottom panels) show protein levels. (right) The PLCγ1 SH2 domain competes with the PLCγ1 substrate in a similar manner. Lane 1 contains only Itk enzyme and PLCγ1 SH2C-Y783-substrate without additional free SH2 domain. Ratios of free SH2 domain to substrate are 1:5, 1:10 or 1:50 in lanes 2-4, respectively and equivalent ratios of PI3K SH2 domain are used in lanes 5-7. Coomassie stain of the gel and an anti-Itk blot (bottom panels) show protein levels. 4(b) Same experiment as shown in (a) using the Grb2 SH2 domain as a control. (left) Itk 32 substrate was incubated with Itk full-length enzyme (lane 1), or with Itk 32 domain:free Itk SH2 domain in ratios of 1:10 and 1:25 (lanes 2 & 3) or equivalent ratios of Grb2 SH2 domain (lanes 4 & 5) and subjected to an in vitro kinase assay. […]
The ratio of CypA to Itk varied between o and 100 times excess CypA. […] No change in Peptide B phosphorylation is detected. […]

Lck kinase domain = experiment: Pull-down assay of Lck kinase domain with Itk SH2 domain; format: binding; details: anti-Myc immunoprecipitation, anti-His blot
From the text: The Itk SH2 domains were immunoprecipitated using an anti-Myc antibody and the samples were western blotted with an anti-His antibody to detect the presence of the Lck kinase domain. Lanes 1 and 2 are beads alone control.
The samples were washed, boiled, resolved on an SDS-PAGE gel, transferred to PVDF membrane and western blotted with an anti-His antibody (clone HIS.H8 from Upstate). • (1) Wilcox, H. M., and Berg, L. J. (2003) Itk phosphorylation sites are required for functional activity in primary T cells. J Biol Chem 278, 37112-21. • (2) Hawkins, J., and Marcy, A. (2001) Characterization of Itk tyrosine kinase: contribution of noncatalytic domains to enzymatic activity. Protein Expr Purif 22, 211-9.

B1: Itk SH2 domain: isolated exogenous SH2 domain of Itk, purified from bacteria (protein)
chain: EWYNKSISRDKAEKLLLDTGKEGAFMVRDSRTPGTYTVSVFTKAIISENPCIKHYHIKETNDSPKRYYVAEKYVFDSIPLLIQYHQYNGGGLVTRLRYPVCSWRQKA
**Q.** B1 was tested. Which “levels of peptide B phosphorylation (initial velocity) with increasing concentrations of SH2 domain” value (full length Itk) did it give?
**A.** do not change significantly

**Q.** What about the “interaction with Lck kinase domain (pull-down)” value (Lck kinase domain) of the same molecule?
**A.** direct interaction
